{"source": "paper PMC12303382", "target": "Clostridioides difficile transferase B component, CDTb_(45-876), activated with trypsin (Clostridioides difficile) (UniProt O32739)", "test": "SDS-PAGE of SDS-resistant oligomers"}
{"substance": "Clostridioides difficile transferase B component, CDTb_(45-876), activated with trypsin (from UniProt O32739 45-876) (natural protein)", "values": [{"measurement": "fold enhancement of oligomerization with 2.5 M ethanol over water", "value": 7.5, "unit": "fold"}]}
